Assay [1] concerns the target Chimeric S. cerevisiae MCM^(Mcm3-YDF, ybbR-LD655-Mcm6) with a humanized Mcm3 subunit, loaded on origin DNA (S. cerevisiae | human) (UniProt P29469).
For assay [2], the target named is S. cerevisiae recombinant MCM^ybbR-LD655-Mcm6 (MCM2–MCM7 complex), loaded on origin DNA (S. cerevisiae) (UniProt P29469).

This is an account of results in article PMC9159944.

Sequence of UniProt P29469 (P29469 whole entry, looked up, change not shown, tested part not stated): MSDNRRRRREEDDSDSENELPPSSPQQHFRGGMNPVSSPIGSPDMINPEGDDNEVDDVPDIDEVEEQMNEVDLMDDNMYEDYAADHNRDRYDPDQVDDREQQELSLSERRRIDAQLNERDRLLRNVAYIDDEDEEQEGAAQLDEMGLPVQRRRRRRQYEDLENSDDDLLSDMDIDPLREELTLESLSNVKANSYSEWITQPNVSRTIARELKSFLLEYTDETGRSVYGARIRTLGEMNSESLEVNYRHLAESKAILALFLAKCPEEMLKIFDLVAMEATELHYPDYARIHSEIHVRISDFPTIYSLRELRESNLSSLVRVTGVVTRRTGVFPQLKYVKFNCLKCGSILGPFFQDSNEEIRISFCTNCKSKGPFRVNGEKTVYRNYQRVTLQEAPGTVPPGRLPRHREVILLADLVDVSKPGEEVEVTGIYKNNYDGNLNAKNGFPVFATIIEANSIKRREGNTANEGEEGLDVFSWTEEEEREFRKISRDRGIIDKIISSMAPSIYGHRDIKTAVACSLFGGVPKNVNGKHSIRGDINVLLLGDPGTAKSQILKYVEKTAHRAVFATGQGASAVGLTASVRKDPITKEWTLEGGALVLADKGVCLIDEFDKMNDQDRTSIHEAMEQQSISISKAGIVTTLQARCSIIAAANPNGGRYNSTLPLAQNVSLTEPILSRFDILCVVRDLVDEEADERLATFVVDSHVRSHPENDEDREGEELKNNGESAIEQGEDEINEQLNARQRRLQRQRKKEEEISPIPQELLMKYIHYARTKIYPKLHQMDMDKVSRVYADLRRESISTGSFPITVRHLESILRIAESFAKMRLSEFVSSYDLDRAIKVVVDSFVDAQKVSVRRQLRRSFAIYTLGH

For “Human recombinant cohesin^(STAG1, SCC1-Halo) (from UniProt Q14683 1-1233; Q9UQE7 1-1217; O60216 1-631; Q8WVM7 1-1258) (complex)”, the fraction of cohesin pausing of the total observation time on encountering origin-bound MCM (single-molecule cohesin translocation assay on licensed DNA, 0.15 M NaCl) in assay [1] stood at 43%; in assay [2] it was 6.4%.
